Test results: paper PMC2860604

T1: Jun bZIP ΔL543 (human, UniProt P05412 251-293)
T1 chain: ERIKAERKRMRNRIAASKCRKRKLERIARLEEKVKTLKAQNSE

T2: Jun bZIP ΔL54 (human, UniProt P05412 251-300)
T2 chain: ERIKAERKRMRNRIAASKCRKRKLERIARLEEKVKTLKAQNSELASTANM

T3: Jun bZIP ΔL5432 (human, UniProt P05412 251-286)
T3 chain: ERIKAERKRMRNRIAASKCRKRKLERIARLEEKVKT

T4: Jun bZIP ΔL54321 (human, UniProt P05412 251-279)
T4 chain: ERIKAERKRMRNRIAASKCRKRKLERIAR


Key:
[1] = biological target: Wildtype (WT) construct of bZIP domain of human Jun (human); experiment: SEC-MALS
Jun bZIP ΔL543 = biological target: T1, Jun bZIP ΔL543; experiment: ITC
Jun bZIP domain WT = Jun bZIP domain WT (human, UniProt P05412 252-315); experiment: ITC
Jun bZIP ΔL5 = Jun bZIP ΔL5 (human, UniProt P05412 251-307); experiment: ITC
Jun bZIP ΔL54 = biological target: T2, Jun bZIP ΔL54; experiment: ITC
Jun bZIP ΔL5432 = biological target: T3, Jun bZIP ΔL5432; experiment: ITC
Jun bZIP ΔL54321 = biological target: T4, Jun bZIP ΔL54321; experiment: ITC

Jun bZIP domain WT, sequence (P05412 252-315): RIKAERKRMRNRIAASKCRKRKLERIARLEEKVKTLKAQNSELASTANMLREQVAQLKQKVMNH

| Molecule | stoichiometry N [1] | Kd (Jun bZIP ΔL543) | Kd (Jun bZIP domain WT) | Kd (Jun bZIP ΔL5) | Kd (Jun bZIP ΔL54) | binding result (Jun bZIP ΔL5432) | binding result (Jun bZIP ΔL54321) |
| --- | --- | --- | --- | --- | --- | --- | --- |
| Wildtype (WT) construct of bZIP domain of human Jun (domain or fragment) | 2 |  |  |  |  |  |  |
| TRE duplex (dsDNA) DNA 1: CGCGTGACTCACCCC DNA 2: GGGGTGAGTCACGCG |  | 14.8 ± 1.67 µM | 250 ± 10 nM | 1260 ± 210 nM | 6.14 ± 0.27 µM | no binding | no binding |
